Measured values: paper doi:10.1101/2023.08.17.553727

Target: B’β-GFP (Arabidopsis thaliana) (UniProt O04376)
Assay: co-IP

Sequence of UniProt O04376 (O04376 whole entry): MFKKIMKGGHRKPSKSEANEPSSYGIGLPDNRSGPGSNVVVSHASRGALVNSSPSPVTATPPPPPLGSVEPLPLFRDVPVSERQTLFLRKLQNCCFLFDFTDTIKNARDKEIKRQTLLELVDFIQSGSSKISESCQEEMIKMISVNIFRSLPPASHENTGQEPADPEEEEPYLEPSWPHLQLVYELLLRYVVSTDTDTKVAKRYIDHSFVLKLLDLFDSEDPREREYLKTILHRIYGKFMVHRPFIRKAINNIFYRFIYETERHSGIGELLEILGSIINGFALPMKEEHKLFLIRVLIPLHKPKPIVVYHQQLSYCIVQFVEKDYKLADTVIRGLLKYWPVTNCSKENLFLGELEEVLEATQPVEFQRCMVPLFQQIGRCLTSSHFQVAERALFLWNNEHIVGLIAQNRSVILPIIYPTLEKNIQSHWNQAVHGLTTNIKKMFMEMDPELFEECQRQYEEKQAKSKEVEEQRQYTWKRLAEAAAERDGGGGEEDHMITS

“PP2A C subunit (from UniProt Q07099 1-306) (enzyme)” was tested, and the binding ability to the C subunit relative to YFP-B’β (fold of YFP-B’β) was 0.33.
